Measured values: PMC7316485, “Secretion of Recombinant Interleukin-22 by Engineered Lactobacillus reuteri Reduces Fatty Liver Disease in a Mouse Model of Diet-Induced Obesity” (mSphere, 2020)

Target: the molecule itself
Experiment: migration on a gel, Western blot; FLAG-tagged mIL-22 from L. reuteri grown in LDM3 at 37°C to OD600 3.5; total lysate (VPL31125) or protein precipitated from culture supernatant (VPL3778); samples prepared as in ref. 14; gel conditions not told

Protein	stoichiometry N
murine interleukin-22 with C-terminal 3x FLAG tag, without signal peptide (IL-22:3X FLAG, pVPL31125) (natural protein, mouse, UniProt Q9JJY9 34-179, looked up, also called mIL-22; source: L. reuteri VPL31125 (accumulates mIL-22 intracellularly), total lysate; not shown: 3x FLAG, C-terminal, kept) LPVNTRCKLEVSNFQQPYIVNRTFMLAKEASLADNNTDVRLIGEKLFRGVSAKDQCYLMKQVLNFTLEDVLLPQSDRFQPYMQEVVPFLTKLSNQLSSCHISGDDQNIQKNVRRLKETVKKLGESGEIKAIGELDLLFMSLRNACV	4
murine interleukin-22 with C-terminal 3x FLAG tag, cleaved from the fusion with a Lactobacillus reuteri signal peptide (SP:IL-22:3X FLAG, pVPL3776) (natural protein, mouse, UniProt Q9JJY9 34-179, looked up, the rest kept the signal peptide; also called mIL-22; mature mIL-22; source: L. reuteri VPL3778 (engineered to secrete mIL-22), protein precipitated from culture supernatant; not shown: 3x FLAG, C-terminal, kept) LPVNTRCKLEVSNFQQPYIVNRTFMLAKEASLADNNTDVRLIGEKLFRGVSAKDQCYLMKQVLNFTLEDVLLPQSDRFQPYMQEVVPFLTKLSNQLSSCHISGDDQNIQKNVRRLKETVKKLGESGEIKAIGELDLLFMSLRNACV	4
